Measured values taken from patent US12416034B2, “Recombinant production of steviol glycosides” (EVOLVA SA, priority 2011, dated 2025).

B1: 91D2e-b: UGT91D2e double mutant C631A/T857C, amino acid modifications L211M and V286A (protein, listed as Stevia rebaudiana)
chain: MATSDSIVDDRKQLHVATFPWLAFGHILPYLQLSKLIAEKGHKVSFLSTTRNIQRLSSHISPLINVVQLTLPRVQELPEDAEATTDVHPEDIPYLKKASDGLQPEVTRFLEQHSPDWIIYDYTHYWLPSIAASLGISRAHFSVTTPWAIAYMGPSADAMINGSDGRTTVEDLTTPPKWFPFPTKVCWRKHDLARLVPYKAPGISDGYRMGMVLKGSDCLLSKCYHEFGTQWLPLLETLHQVPVVPVGLLPPEIPGDEKDETWVSIKKWLDGKQKGSVVYVALGSEALVSQTEVVELALGLELSGLPFVWAYRKPKGPAKSDSVELPDGFVERTRDRGLVWTSWAPQLRILSHESVCGFLTHCGSGSIVEGLMFGHPLIMLPIFGDQPLNARLLEDKQVGIEIPRNEEDGCLTKESVARSLRSVVVEKEGEIYKANARELSKIYNDTKVEKEYVSQFVDYLEKNARAVAIDHES
B2: UGT74G1: S. rebaudiana UGT, SEQ ID NO:1 (protein, listed as Stevia rebaudiana)
chain: MAEQQKIKKSPHVLLIPFPLQGHINPFIQFGKRLISKGVKTTLVTTIHTLNSTLNHSNTTTTSIEIQAISDGCDEGGFMSAGESYLETFKQVGSKSLADLIKKLQSEGTTIDAIIYDSMTEWVLDVAIEFGIDGGSFFTQACVVNSLYYHVHKGLISLPLGETVSVPGFPVLQRWETPLILQNHEQIQSPWSQMLFGQFANIDQARWVFTNSFYKLEEEVIEWTRKIWNLKVIGPTLPSMYLDKRLDDDKDNGFNLYKANHHECMNWLDDKPKESVVYVAFGSLVKHGPEQVEEITRALIDSDVNFLWVIKHKEEGKLPENLSEVIKTGKGLIVAWCKQLDVLAHESVGCFVTHCGFNSTLEAISLGVPVVAMPQFSDQTTNAKLLDEILGVGVRVKADENGIVRRGNLASCIKMIMEEERGVIIRKNAVKWKDLAKVAVHEGGSSDNDIVEFVSELIKA

Legend:
[1] = RebD solubility in water; type: physicochemical; details: 30° C.
Description: The solubility of RebD was assessed by making several different solutions of RebD in water were made and incubated at 30° C. for 72 hours. […] One with skill in the art will recognize that the solubility can be influenced by any number of conditions such as pH, temperature, or different matrices.

[2] = Denaturation temperature by differential scanning calorimetry (DSC); type: physicochemical; details: 6HIS-purified enzymes, 91D2e-b GST-purified
Description: To assess the thermal stability of EUGT11 and to compare it with the other UGTs in the steviol glycosylation pathway, denaturation temperatures of the proteins were determined using differential scanning calorimetry (DSC). Use of DSC thermograms to estimate denaturation temperatures, TD, is described, for example, by E. Freire in Methods in Molecular Biology 1995, Vol. 40 191-218. DSC was performed (using 6HIS-purified EUGT11, yielding an apparent TD of 39° C.; while when GST-purified 91D2e-b was used, the measured TD was 79° C. For reference, the measured TD when using 6HIS-purified UGT74G1, UGT76G1 and UGT85C2 was 86° C. in all cases. One of skill in the art will recognize that enzyme immobilization or addition of thermal protectants can be added to the reactions to improve stability of the protein. Non-limiting examples of thermal protectants include trehalose, glycerol, ammonium sulphate, betaine, trimethylamine oxide, and proteins.

[3] = Enzyme kinetics with UDP-glucose as substrate; type: biochemical
Description: (§1) A series of experiments were performed to determine kinetic parameters of EUGT11 and 91D2e-b. For both enzymes, 100 μM RebA, 300 μM UDP-glucose, and 10 U/mL Alkaline Phosphatase (Fermentas/Thermo Fisher, Waltham, MA) were used in the reactions. For EUGT11, the reactions were performed at 37° C. using 100 mM Tris-HCl, pH 7, and 2% enzyme. For 91D2e-b, the reactions were performed at 30° C. using 20 mM Hepes-NaOH, pH 7.6, 20% (by volume) enzyme. The initial velocities (V0) were calculated in the linear range of a product versus time plot.
(§2) Vmax and KM parameters were determined from the curve-fit Lineweaver-Burk data, calculated from the x- and y intercepts (x=0, y=1/Vmax) and (y=0, x=−1/KM). Additionally, the same parameters also were calculated by a non-linear least squares regression, using the SOLVER function in Excel. The results obtained with both methods for EUGT11 and RebA are presented in Table 12, along with all the kinetic parameters of this example. Kcat is calculated based on Vmax divided by the approximate amount of protein in the assay.
In order to investigate the influence of UDP-glucose concentration in the glycosylation reaction, as well as the affinity of EUGT11 for UDP-glucose, similar kinetics analysis were performed. EUGT11 was incubated with increasing amounts of UDP-glucose (20 μM, 50 μM, 100 μM, and 200 μM), maintaining an excess of RebA (500 μM).
(§3) In the case of UGT91D2e-b, RebA concentrations assayed were 50 μM, 100 μM, 200 μM, 300 μM, 400 μM and 500 μM. Concentration of UDP-glucose was always three times the concentration of RebA and incubation was performed at 30° C., in the reaction conditions described above for UGT91D2e-b. Additionally, kinetic parameters of UGT91D2e-b towards UDP-glucose were determined. UGT91D2e-b was incubated with increasing amounts of UDP-glucose (30 μM, 50 μM, 100 μM, and 200 μM), maintaining an excess of RebA (1500 μM). incubation was performed at 30° C., in optimal conditions for UGT91D2e-b.

[4] = Screening by LC-MS of E. coli lysates, rebaudioside A as substrate; type: biochemical; details: RebA substrate
Description: (§4) To analyze the approximately 1600 mutant clones of UGT91D2e, the E. coli transformants were grown overnight at 30° C. in 1 ml of NZCYM containing ampicillin (100 mg/1) and chloramphenicol (33 mg/1), in 96-well format. The next day, 150 μl of each culture was inoculated into 3 ml NZCYM containing ampicillin (100 mg/1), chloramphenicol (33 mg/1), arabinose 3 mM, IPTG 0.1 mM and ethanol 2% v/v, in 24-well format, and incubated at 20° C. and 200 rpm for ˜20 h. The following day, cells were spun down and pellets were resuspended in 100 μl of lysis buffer containing 10 mM Tris-HCl pH 8, 5 mM MgCl2, 1 mM CaCl2) and complete mini protease inhibitor EDTA-free (3 tablets/100 ml) (Hoffmann-La Roche, Basel, Switzerland) and frozen −80° C. for at least 15 minutes to promote cell lysis. […] In each case, the resulting compounds, stevioside or rebaudioside D (rebD), were measured by LC-MS. Results were analyzed in comparison with the stevioside or rebD produced by the lysates expressing the corresponding controls (91D2e, 91D2e-b, EUGT11 and the empty plasmid). […]
(§5) Half of the 1600 clones and the corresponding controls were assayed for their capacity to glycosylate rubusoside and rebaudiosideA. Stevioside and RebD were quantified by LC-MS. […]

[5] = Screening by LC-MS of E. coli lysates, rubusoside as substrate; type: biochemical
Description: as §4, §5

[6] = Enzyme kinetics with RebA as substrate; type: biochemical; details: Reb A
Description: as §1
To first investigate the linearity intervals, initial time-courses were done for each enzyme. EUGT11 was assayed at 37° C. for 48 h at initial concentrations of 100 μM RebA and 300 μM UDP-glucose. UGT91D2e-b was assayed at 37° C. for 24 h at initial concentrations of 200 μM RebA and 600 μM UDP-glucose. Based on these range-finding studies, it was determined that the initial 10 minutes in the case of EUGT11, and the initial 20 minutes in UGT91D2e-b would be in the linear range with respect to product formation, and therefore initial velocities of each reaction were calculated in those intervals. In the case of EUGT11, RebA concentrations assayed were 30 μM, 50 μM, 100 μM, 200 μM, 300 μM and 500 μM. Concentration of UDP-glucose was always three times the concentration of RebA and incubation was performed at 37° C. By plotting the calculated V0 as a function of the substrate concentrations, Michaelis-Menten curves were generated. By plotting the reciprocal of V0 and the reciprocal of [S], a Lineweaver-Burk graphic was obtained, with y=339.85x+1.8644; R^2=0.9759.
as §2, §3

[7] = Codon optimized UGT cell lysate assay, steviol as substrate; type: biochemical; details: 0.25 mM steviol, 24 hours, 30° C.
Description: The wild-type, DNA 2.0, and GeneArt sequences were assayed for in vitro activity to compare reactivity on substrates in the steviol glycosides pathway. UGTs were inserted in high copy (2p) vectors and expressed from a strong constitutive promoter (GPD1) (vectors P423-GPD, P424-GPD, P425-GPD, and P426-GPD). The plasmids were transformed individually into the universal Watchmaker strain, EFSC301 (described in Example 3 of WO2011/153378) and assays were carried out using cell lysates prepared from equal amount of cells (8 OD units). For the enzymatic reactions, 6 μL of each cell lysate were incubated in a 30 μL reaction with 0.25 mM steviol (final concentration) to test UGT74G1 and UGT85C2 clones, and with 0.25 mM 13-SMG (13SMG) (final concentration) to test 76G1 and 91D2e UGTs. Assays were carried out for 24 hours at 30° C. Prior to LC-MS analysis, one volume of 100% DMSO was added to each reaction, samples were centrifuged at 16000 g, and the supernatants analysed.

Molecule | concentration soluble in water initially ([1]; 72 hours) [mM] | concentration stable for longer periods of time ([1]; water) [mM] | denaturation temperature TD [2] [°C] | Kcat ([3]; Lineweaver-Burk plot) [min⁻¹] | Km ([3]; Lineweaver-Burk plot) [µM] | Vmax ([3]; Lineweaver-Burk plot) [µM/min] | Kcat ([3]; Nonlinear Least Square Fit) [min⁻¹] | Km ([3]; Nonlinear Least Square Fit) [µM] | Vmax ([3]; Nonlinear Least Square Fit) [µM/min] | RebD formed by lysates [4] [µM] | stevioside formed by lysates [5] [µM] | Kcat ([6]; Lineweaver-Burk plot) [min⁻¹] | Km ([6]; Lineweaver-Burk plot) [mM] | Vmax ([6]; Lineweaver-Burk plot) [µM/min] | Kcat ([6]; Nonlinear Least Square Fit) [min⁻¹] | Km ([6]; Nonlinear Least Square Fit) [mM] | Vmax ([6]; Nonlinear Least Square Fit) [µM/min] | activity of GeneArt lysate as a percentage of the wild-type enzyme [7]
C=C1C[C@@]23CC[C@H]4[C@@](C)(CCC[C@@]4(C)C(=O)O[C@@H]4O[C@H](CO)[C@@H](O)[C@H](O)[C@H]4O[C@@H]4O[C@H](CO)[C@@H](O)[C@H](O)[C@H]4O)[C@@H]2CC[C@]1(O[C@@H]1O[C@H](CO)[C@@H](O)[C@H](O[C@@H]2O[C@H](CO)[C@@H](O)[C@H](O)[C@H]2O)[C@H]1O[C@@H]1O[C@H](CO)[C@@H](O)[C@H](O)[C@H]1O)C3 [RebD, Rebaudioside D] | ≤ 1 | ≤ 0.5 | – | – | – | – | – | – | – | – | – | – | – | – | – | – | – | –
B1 | – | – | 79 | 0.19 | 41.9 | 0.18 | 0.2 | 45.1 | 0.19 | > 1.5 | > 10 | 0.41 | 1.58 | 0.44 | 0.32 | 1.15 | 0.34 | –
B2 | – | – | 86 | – | – | – | – | – | – | – | – | – | – | – | – | – | – | equivalent activity
